{
  "source": "patent US20060067910A1",
  "about": "“High-molecular weight derivatives of camptothecins” (priority 2002, published 2006)",
  "key": {"[1]": {"assay": "Variation in body weight as an indication of toxicity, Colon 26 tumor-bearing mice", "format": "in vivo, mouse", "procedure": "Mouse colon cancer Colon 26 tumor under successive cultivation under mouse skin was cut into blocks of approximately 2 mm square, and transplanted to under mouse skin using a trochar. […] As an indication of toxicity, variation in body weight was also measured (Table 2)."}, "[2]": {"system": "Mouse colon cancer Colon 26 tumor", "assay": "Antitumor action, relative tumor volume after single intravenous administration", "format": "in vivo", "details": "with smaller administration amount; single i.v. administration", "procedure": "As an indication of toxicity, variation in body weight was also measured (Table 2)."}},
  "data": [
    {"substance": "condensate of a block copolymer of mono-methoxypolyethylene glycol having a molecular weight of approximately 12000 and polyglutamic acid having a polymerization number of approximately 7, with 7-ethyl-10-hydroxycamptothecin [Compound 2]", "values": [
      {"measurement": "variation in body weight", "setting": "[1]; dose 90.0 mg/kg i.v. once, day 0 after administration", "result": 1.0},
      {"measurement": "variation in body weight", "setting": "[1]; dose 90.0 mg/kg i.v. once, day 2 after administration", "result": 0.96},
      {"measurement": "variation in body weight", "setting": "[1]; dose 90.0 mg/kg i.v. once, day 5 after administration", "result": 1.00},
      {"measurement": "variation in body weight", "setting": "[1]; dose 90.0 mg/kg i.v. once, day 12 after administration", "result": 0.90},
      {"measurement": "variation in body weight", "setting": "[1]; dose 90.0 mg/kg i.v. once, day 14 after administration", "result": 0.83},
      {"measurement": "variation in body weight", "setting": "[1]; dose 180.0 mg/kg i.v. once, day 0 after administration", "result": 1.0},
      {"measurement": "variation in body weight", "setting": "[1]; dose 180.0 mg/kg i.v. once, day 2 after administration", "result": 0.91},
      {"measurement": "variation in body weight", "setting": "[1]; dose 180.0 mg/kg i.v. once, day 5 after administration", "result": 0.99},
      {"measurement": "variation in body weight", "setting": "[1]; dose 180.0 mg/kg i.v. once, day 7 after administration", "result": 0.99},
      {"measurement": "variation in body weight", "setting": "[1]; dose 180.0 mg/kg i.v. once, day 9 after administration", "result": 1.04},
      {"measurement": "variation in body weight", "setting": "[1]; dose 180.0 mg/kg i.v. once, day 12 after administration", "result": 0.94},
      {"measurement": "variation in body weight", "setting": "[1]; dose 180.0 mg/kg i.v. once, day 14 after administration", "result": 0.94}
    ]},
    {"substance": "condensate of a block copolymer of methoxypolyethylene glycol having a molecular weight of approximately 12000 and polyglutamic acid having a polymerization number of approximately 28, with 7-ethyl-10-hydroxycamptothecin [Compound 1]", "values": [
      {"measurement": "antitumor effect as compared with compound 2 (smaller drug content)", "setting": "[2]", "result": "higher antitumor effect"},
      {"measurement": "variation in body weight", "setting": "[1]; dose 22.5 mg/kg i.v. once, day 0 after administration", "result": 1.0},
      {"measurement": "variation in body weight", "setting": "[1]; dose 22.5 mg/kg i.v. once, day 2 after administration", "result": 0.98},
      {"measurement": "variation in body weight", "setting": "[1]; dose 22.5 mg/kg i.v. once, day 5 after administration", "result": 1.02},
      {"measurement": "variation in body weight", "setting": "[1]; dose 22.5 mg/kg i.v. once, day 9 after administration", "result": 1.06},
      {"measurement": "variation in body weight", "setting": "[1]; dose 22.5 mg/kg i.v. once, day 12 after administration", "result": 1.03},
      {"measurement": "variation in body weight", "setting": "[1]; dose 22.5 mg/kg i.v. once, day 14 after administration", "result": 0.96},
      {"measurement": "variation in body weight", "setting": "[1]; dose 45.0 mg/kg i.v. once, day 0 after administration", "result": 1.0},
      {"measurement": "variation in body weight", "setting": "[1]; dose 45.0 mg/kg i.v. once, day 2 after administration", "result": 0.94},
      {"measurement": "variation in body weight", "setting": "[1]; dose 45.0 mg/kg i.v. once, day 5 after administration", "result": 0.91},
      {"measurement": "variation in body weight", "setting": "[1]; dose 45.0 mg/kg i.v. once, day 7 after administration", "result": 0.97},
      {"measurement": "variation in body weight", "setting": "[1]; dose 45.0 mg/kg i.v. once, day 12 after administration", "result": 1.03},
      {"measurement": "variation in body weight", "setting": "[1]; dose 45.0 mg/kg i.v. once, day 14 after administration", "result": 1.04}
    ]}
  ]
}
